According to paper PMC6194676, “Blood-brain barrier-associated pericytes internalize and clear aggregated amyloid-β42 by LRP1-dependent apolipoprotein E isoform-specific mechanism” (Molecular Neurodegeneration, 2018):

B1: RAP: Receptor associated protein, an LRP1 antagonist which inhibits ligand binding to LRP1 (protein, UniProt P30533 35-357, looked up)
Alpha-2-macroglobulin …: YSREKNQPKPSPKRESGEEFRMEKLNQLWEKAQRLHLPPVRLAELHADLKIQERDELAWKKLKLDGLDEDGEKEARLIRNLNVILAKYGLDGKKDARQVTSNSLSGTQEDGLDDPRLEKLWHKAKTSGKFSGEELDKLWREFLHHKEKVHEYNVLLETLSRTEEIHENVISPSDLSDIKGSVLHSRHTELKEKLRSINQGLDRLRRVSHQGYSTEAEFEEPRVIDLWDLAQSANLTDKELEAFREELKHFEAKIEKHNHYQKQLEIAHEKLRHAESVGDGERVSRSREKHALLEGRTKELGYTVKKHLQDLSGRISRARHNEL

Assays:
CD13+ pericytes = assay: Cy3-Aβ42 uptake by pericytes on freshly isolated mouse brain cortical slices; type: cell-based; conditions: Cy3-Aβ42 1 μM
Experimental: Brain slices were prepared from 2-month old C57BL6 mice or Lrp^lox/lox;Cspg4-Cre mice. Following the urethane anesthesia, brains were quickly removed from the cranial cavity and sectioned with McIlwain tissue chopper (Ted Pella, Inc., Redding, CA, USA) into 200 μm thick slices containing cortex and hippocampus, as previously described. Slices were recovered for 30 min in a submersion chamber filled with the per-warmed (at 37 °C) artificial cerebrospinal fluid (aCSF; 126 mM NaCl, 2.5 mM KCl, 1.25 mM Na2PO4, 26 mM NaHCO3, 1 mM MgCl2, 2 mM CaCl2, 0.5 mM ascorbic acid, 2 mM sodium pyrurate, and 10 mM glucose, saturated with 95% O2 and 5% CO2). […] (anti-LRP1 N20, 50 μg/ml; Santa Cruz Biotech., Santa Cruz, CA, USA) for 20 min at 37 °C. At the end of the experiment, brain slices were washed with phosphate buffer saline (PBS) and fixed with 4% PFA for 30 min. The same immunostaining procedure as for human brain tissue without antigen retrieval was performed on mouse brain slices. Primary antibodies included goat anti-mouse aminopeptidase N (CD13) (1:100, R&D Systems), and goat anti-mouse PDGFRβ (1:100, R&D Systems). Secondary antibodies were: Alexa 488-conjugated donkey anti-goat (1:200, Invitrogen). Images were obtained with Zeiss 510 confocal microscopy (Carl Zeiss MicroImaging Inc.) with lasers and band-pass filter settings as described above. […]

[1] = tested on: primary mouse brain pericytes; assay: Clearance of aggregated Cy3-Aβ42 from multi-spot glass slides by primary mouse brain pericytes; type: cell-based; conditions: 5 days of culture, 1 μg Cy3-Aβ42 per spot, 5,000 cells per spot; anti-LRP1 50 μg/ml, RAP 500 nM, or si.Lrp1; compared to cell-free control; N = 4 independent cultures, mean
From the text: Brain capillaries were isolated from mouse cortices pooled from 3 to 4 mouse brains for each biological replicate. In experiments in Figs. 4 and 5, we used 3–4 independent biological replicates (cultures), as indicated in the legends to these respective figures. Capillaries were isolated as we have described previously. In brief, mouse cortices were macroscopically dissected, and all visible white matter was discarded in ice-cold PBS containing 2% fetal bovine serum (FBS). The brain was homogenized in PBS containing 2% FBS and centrifuged at 6,000 g for 15 min after addition of Dextran (70 kDa, Sigma). The capillary pellet was collected and sequentially filtered through a 45 μm cell strainer (BD Falcon). […]
The multi-spot glass slides (Thermo Scientific, 9991090, Waltham, MA, USA) were coated with Cy3- Aβ42 [29, 51] at 1 μg per spot without cells or with brain capillary pericytes treated with non-immune IgG (NI-IgG) or LRP1-specific blocking antibody (anti-LRP1; 50 μg/ml) or) or apoE-specific blocking antibody (anti-apoE, HJ6.3, 50 μg/ml), scrambled siRNA (si.Control) or LRP1 siRNA (si.Lrp1) (Dharmacon, E-040764-00-0010) or apoE siRNA (si.Apoe) (Dharmacon, E-040885-00-0005), and 500 nM receptor-associated protein (RAP) (EMD Bioscience), lipidated apoE3 (40 nM) or apoE4 (40 nM). […] The Cy3-Aβ42 relative intensity was analyzed with the NIH Image J software. […]

Row | Molecule | Uptake of Cy3-Aβ42 by pericytes, time course (CD13+ pericytes; 30 min vs 2 h) | Cy3-Aβ42+ area occupying CD13+ pericyte profiles (CD13+ pericytes; 2 h, in the presence of the LRP1 inhibitor (anti-LRP1 50 μg/ml), confocal microscopy, N = 4 independent cultures, mean) | Cy3-Aβ42 cleared by pericytes [1]
1 | Cy3-Aβ42: Human Cy3-labelled amyloid-β42; preparation contained monomers, dimers, trimers, tetramers and small molecular weight oligomers [reference compound] | rapid and time-dependent |  | 
2 | B1 |  | 21.7% | 27.3%
